Measurements reported in the supplement of paper PMC9170038.

Test system: MS2 coat protein
Test: apparent KD of MS2 coat protein; designed switch direction (-1 OFF switch, 1 ON switch): 1; higher = weaker reporter binding
Outline: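 For each design, the apparent KD is the median over clusters of curves fitted to normalised cluster fluorescence. Clusters held RNA switches with common flanks, transcribed on Illumina chips by stalled E. coli RNA polymerase. These were titrated with SNAP-549-labelled MS2 coat protein, doubling from 0.7 or 1.5 nM to 3 µM, without input, with 200 uM small-molecule ligand, or with an oligonucleotide input.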

[1] = input ligand: microRNA oligo, concentration not stated
[2] = Eterna round: R95, input ligand: FMN 200 uM
[3] = Eterna round: R95, input ligand: microRNA oligo, concentration not stated
[4] = Eterna round: R95, input ligand: none

Sequence | apparent KD of MS2 coat protein (input ligand: FMN 200 uM) | apparent KD of MS2 coat protein [1] | apparent KD of MS2 coat protein (input ligand: none) | apparent KD of MS2 coat protein [2] | apparent KD of MS2 coat protein [3] | apparent KD of MS2 coat protein [4]
AGCUAGUACGAAGGAUAUACAAACAUGAGGAUCACCCAUGUAUACAUGGUUAGAUGUGACUACAUGUAGAAGGUCGUACUAGCA [SameState NG2 #15] (Eterna round: R96, puzzle: Same State NG 2) | 225 nM | 331 nM | 443 nM |  |  | 
AGCUAUUAAUCAGGAUAUAGUGACAUGAGGAUCACCCAUGUAUUGAUGAUGAAAUGUGGUCGCCGCUAGAAGGGAUUACUAACA [SameState NG2 #45] (Eterna round: R96, puzzle: Same State NG 2) | 75.1 nM | 27.7 nM | 34 nM |  |  | 
AGCUAUUAAUCAGGAUAUGGUGACAUGAGGAUCACCCAUGUAUAGAUGAUUAAAUGUGGUCUAUACUAGAAGGGAUUACUAACA [SameState NG2 #53] (Eterna round: R96, puzzle: Same State NG 2) | 2210 nM | 478 nM | 626 nM |  |  | 
AGCUUUUAAUCAGGAUAUGGUCACAUGAGGAUCACCCAUGUAACGAUGAUAUAAUGUGGUCAAGACUAGAAGGGAUUGCUAACA [SameState NG2 #67] (Eterna round: R96, puzzle: Same State NG 2) | 172 nM | 232 nM | 288 nM |  |  | 
AGGAUAACACAUGAGGAUCACCCAUGUAUUAUUAUUACAAGCUUUUUGCUCGUUUUUAAUAAUACAUGUGUUAUUUU [Default title] (puzzle: Sensor for hsa-mir-208a version 2) |  |  |  | 88.2 nM | 88.7 nM | 133 nM
AGGCUCAGACGAGGAUAUGAUCAUGGCGCUUCGGCGCAUACAUGAGGAUCACCCAUGUAGGGUGAUCAGAAGGCGUCUGAGCCA [SSNG2/8-A1] (Eterna round: R96, puzzle: Same State NG 2) | 42.1 nM | 225 nM | 314 nM |  |  | 
AGGUUCGUGCUAGGAUAUCUAGGAUAUGGACGAGGAUUACCCGAGCAGGAUUACCGCACCAGAGGAGAGAAGGAGCAACAAGAG [pwkr ssNG2 2F5 2FMN.13] (Eterna round: R96, puzzle: Same State NG 2) | 0.959 nM | 5.01 nM | 420 nM |  |  | 
AGUAGUGUAACAUGAGGAUCACCCAUGUAAGAAGAUGUAACCUAGGAUAUGGAUGAUAUGUUAGACCAGAAGGAGGAUUGUUUA [JR_SSNG3_Sub039] (Eterna round: R96, puzzle: Same State NG 3) | 43.2 nM | 116 nM | 207 nM |  |  | 
AGUAGUUUAACAUGAGGAUCACCCAUGUAUCUAUCUGUAACCUAGGAUAUGGACGUUUUAUUUAACCAGAAGGAGGAUCGUUUA [JR_SSNG3_Sub045] (Eterna round: R96, puzzle: Same State NG 3) | 17.1 nM | 16.9 nM | 25.3 nM |  |  | 
AGUCCAGCAAGAGCUGGACAAAAGCAUGUACAUGAGGAUCACCCAUGUUCAUGUACAAGCUUUUAGCUCGUCUUAAA [Mat - hsa-mir-208a - Mod of JL - 58] (puzzle: Sensor for hsa-mir-208a) |  |  |  | 505 nM | 14.2 nM | 570 nM
AGUCCAGCAUAAGCUGGACAAAAGCAUGUACAUGAGGAUCACCCAUGUCAUGUACAAGCUUUUUGCUCGUCUUAAUA [Mat - hsa-mir-208a - Mod of JL - D36] (puzzle: Sensor for hsa-mir-208a) |  |  |  | 446 nM | 19.8 nM | 500 nM
AGUCCAGCCAAAGCUGGACAAAAGCAUGUACAUGAGGAUCACCCAUGUUCAUGUACAAGCUUUUUGCAAGUCAAAAG [Mat - hsa-mir-208a - Mod of JL - 77] (puzzle: Sensor for hsa-mir-208a) |  |  |  | 332 nM | 29.5 nM | 498 nM
AGUCCAGCCUGAGCUGGACAAAAGCAUGUACAUGAGGAUCACCCAUGUCAUGUACAAGCUUUUUGCUCGUCUAAAUA [Mat - hsa-mir-208a - Mod of JL - D27] (puzzle: Sensor for hsa-mir-208a) |  |  |  | 516 nM | 15.8 nM | 699 nM
AGUCCAGCCUGAGCUGGACAAAAGCAUGUACAUGAGGAUCACCCAUGUCAUGUACAAGCUUUUUGCUCGUCUUAAAA [JL zipper 46] (Eterna round: R96, puzzle: Sensor for hsa-mir-208a) | 685 nM | 13 nM | 677 nM |  |  | 
AGUCCAGCCUGAGCUGGACAAAAGCAUGUACAUGAGGAUCACCCAUGUCAUGUACAAGCUUUUUGCUCGUUUUAAAA [Zipper 46 - 13] (Eterna round: R96, puzzle: Sensor for hsa-mir-208a) | 633 nM | 12.9 nM | 611 nM |  |  | 
AGUCCAGCCUGAGCUGGACAAAAGCAUGUACAUGAGGAUCACCCAUGUCAUGUACAAGCUUUUUGCUCGUUUUAAAA [Zipper 46 - 13] (puzzle: Sensor for hsa-mir-208a) |  |  |  | 477 nM | 12.9 nM | 1010 nM
AGUCCAGCCUGAGCUGGACAAAAGCAUGUACAUGAGGAUCACCCAUGUUCAUGUACAAGCUUUUUGCAAGUCAAAAU [Mat - hsa-mir-208a - Mod of JL - 80] (puzzle: Sensor for hsa-mir-208a) |  |  |  | 723 nM | 13.8 nM | 641 nM
AGUCCAGCCUGAGCUGGACAAAAGCAUGUACAUGAGGAUCACCCAUGUUCAUGUACAAGCUUUUUGCUCGUCUUAAA [JL zipper 52] (Eterna round: R96, puzzle: Sensor for hsa-mir-208a) | 615 nM | 13.8 nM | 636 nM |  |  | 
AGUCCAGCCUGAGCUGGACAAAAGCAUGUACAUGAGGAUCACCCAUGUUCAUGUACAAGCUUUUUGCUCGUCUUAAA [salish99_208a_r3_026] (puzzle: Sensor for hsa-mir-208a) |  |  |  | 483 nM | 14.6 nM | 533 nM
AGUCCAGCCUGAGCUGGACAAAAGCAUGUACAUGAGGAUCACCCAUGUUCAUGUACAAGCUUUUUGCUCGUCUUACC [salish99_208a_r3_079] (puzzle: Sensor for hsa-mir-208a) |  |  |  | 669 nM | 15.8 nM | 722 nM
AGUCCAGCCUGAGCUGGACAAAAGCAUGUACAUGAGGAUCACCCAUGUUCAUGUACAAGCUUUUUGCUCGUCUUAGC [salish99_208a_r3_063] (puzzle: Sensor for hsa-mir-208a) |  |  |  | 837 nM | 14.6 nM | 648 nM
AGUCCAGCCUGAGCUGGACAAAAGCAUGUACAUGAGGAUCACCCAUGUUCAUGUACAAGCUUUUUGCUCGUCUUAUU [salish99_208a_r3_047] (puzzle: Sensor for hsa-mir-208a) |  |  |  | 457 nM | 14.1 nM | 725 nM
AGUCCAGCCUGAGCUGGACAAAAGCAUGUACAUGAGGAUCACCCAUGUUCAUGUACAAGCUUUUUGCUCGUCUUCAA [salish99_208a_r3_097x] (puzzle: Sensor for hsa-mir-208a) |  |  |  | 701 nM | 13.7 nM | 525 nM
AGUCCAGCCUGAGCUGGACAAAAGCAUGUACAUGAGGAUCACCCAUGUUCAUGUACAAGCUUUUUGCUCGUCUUGCA [salish99_208a_r3_104x] (puzzle: Sensor for hsa-mir-208a) |  |  |  | 450 nM | 15 nM | 415 nM
AGUCCUGAAAAGAAAAUACAGAGAGAUGUACAUGAGGAUCACCCAUGUCAUGUACAAGUUCUAUGCUCGUCAUAUAA [Sensorship 22 - Jieux - Sensor for hsa-mir-208a] (puzzle: Sensor for hsa-mir-208a) |  |  |  | 510 nM | 106 nM | 617 nM
AGUCCUGAAUAAAUUAAACAGAGACAUGUACAUGAGGAUCACCCAUGUCAUGUACAAGUUCUAUGCUCGUCAUAUAA [Sensorship 19 - Jieux - Sensor for hsa-mir-208a] (puzzle: Sensor for hsa-mir-208a) |  |  |  | 23 nM | 14.6 nM | 24.7 nM
AUAAAACAUGAGGAUCACCCAUGUAGACACGAUGGAGGAUAUACUAGAUCGAAAGAUCUAGUAGAAGGCCGACGUA [Mat - Same State 1 - JL mod - D95] (Eterna round: R96, puzzle: Same State 1) | 21.8 nM | 15.6 nM | 19.7 nM |  |  | 
AUAAAACAUGAGGAUCACCCAUGUAGACGGAGAGCCGUCACAUAGGAUAUAGCCAGCGGUGUUGGCUAGAAGGGUGGUAGAAAA [Lavezaer] (Eterna round: R96, puzzle: Same State NG 3) | 59.8 nM | 78.1 nM | 130 nM |  |  | 
AUAAAACAUGAGGAUCACCCAUGUCAACAAAGUCGAGGAUAUGGGCAUAUAAAAUAAGAACCAGAAGGCGAAUAAU [salish99_ss1_r3_026] (puzzle: Same State 1) |  |  |  | 32.2 nM | 265 nM | 230 nM
AUAACCCGUGCUAAGGAUAUGCGUACUCCUACAUGAGGAUCACCCAUGUCCCGCCGAAAAGGAAGGCAGAAGGUAGCACGGGCCG [Lasoleri] (puzzle: Same State 2) |  |  |  | 45.7 nM | 84.9 nM | 126 nM
